In patent US20020115631A1 (IDUN PHARMACEUTICALS, published 2002):
Blank lines part the entries; values can stand above or below the binder they belong to.

Key:
[1] = target: T1, GST-Bax fusion protein (pGEX 4T1, N-terminal glutathione-S-transferase tag) (human, UniProt Q07812 1-171); assay: ELISA, 6HBad coated on the plate, GST fusion in solution, anti-GST detection
T1 construct: no residue range is printed; also called pGEX Bax

[2] = target: T2, GST-Bcl-xL fusion protein (pGEX 4T1, N-terminal glutathione-S-transferase tag) (human, UniProt Q07817 1-212); assay: as above
T2 construct: no residue range is printed; also called pGEX-Bcl-XL
T2 sequence (Q07817 1-212): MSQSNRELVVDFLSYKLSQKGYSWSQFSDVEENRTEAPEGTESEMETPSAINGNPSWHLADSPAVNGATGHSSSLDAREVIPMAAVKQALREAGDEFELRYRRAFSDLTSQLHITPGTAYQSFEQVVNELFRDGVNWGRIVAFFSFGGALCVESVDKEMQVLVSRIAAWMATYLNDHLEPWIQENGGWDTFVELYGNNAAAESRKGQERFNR

[3] = target: T3, full length human Bad expressed as a fusion protein with the DNA-binding protein LexA (bait, vector pEGE202) (human, UniProt P0A7C2 1-202 (Escherichia coli entry)); assay: yeast two-hybrid, beta-galactosidase reporter (LexA-Bad bait, B42 prey)
T3 construct: Expressed in yeast EGY191 for the two-hybrid assay; also called Bad-bait; LexA-Bad
T3 sequence: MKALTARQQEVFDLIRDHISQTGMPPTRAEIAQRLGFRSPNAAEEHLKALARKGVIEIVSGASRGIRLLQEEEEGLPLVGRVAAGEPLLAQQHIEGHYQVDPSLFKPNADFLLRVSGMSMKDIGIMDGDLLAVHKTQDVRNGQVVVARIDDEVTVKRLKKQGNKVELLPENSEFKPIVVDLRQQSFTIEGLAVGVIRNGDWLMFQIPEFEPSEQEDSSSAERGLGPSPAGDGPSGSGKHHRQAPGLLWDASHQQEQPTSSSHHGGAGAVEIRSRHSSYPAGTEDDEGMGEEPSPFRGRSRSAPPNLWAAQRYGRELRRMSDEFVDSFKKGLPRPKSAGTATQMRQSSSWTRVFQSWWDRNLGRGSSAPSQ
Source text: Briefly, the full length human Bad sequence was subcloned into the yeast 2-hybrid vector pEGE202, or “bait-vector” to express Bad as a fusion protein wish the DNA-binding protein LexA (Ruden et al., Nature (1991) 350:426-430). Human Bcl-2, Bcl-X, Bax, Bak and Bad were similarly cloned into the yeast 2-hybrid vector pJG4-5, or “prey-vector” to expressed these Bcl-2 family members as fusion proteins with the transcriptional activator B42 (Gyuris et al., Cell (1993) 75:791-803). Briefly, the full length human Bad sequence was amplified by PCR and subcloned into the bait-vector. For the PCR reaction we used the following primers: 5′ATCAGTGAATTCACTATGTTCCAGATCCCA GAC3′ (SEQ ID NO: 4) and 5′ ATCGATCTCGAGTCACTGGGAGGGGGCGGA GCT3′ (SEQ ID NO: 5). The resultant PCR fragment was digested with EcoRI and Xho I and then subcloned into the bait vector. The human Bad sequence was also PCR amplified and subcloned into the prey-vector using the same primers and subcloning strategy as described above. […]
To determine if human Bad binds to any of the above Bcl-2 family members, the Bad-bait plasmid was cotransformed with every prey plasmid and the reporter plasmid p18-34 into the yeast strain EGY191. […] The reaction was stopped with 0.4 M NaOH and the plate was read at an OD 420 nm.

T1 sequence (Q07812 1-171): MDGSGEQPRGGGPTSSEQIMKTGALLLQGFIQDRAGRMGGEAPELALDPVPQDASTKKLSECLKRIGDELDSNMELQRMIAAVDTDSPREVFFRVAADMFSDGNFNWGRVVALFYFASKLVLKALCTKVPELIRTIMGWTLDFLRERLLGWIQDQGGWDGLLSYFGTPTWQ

binding result [1]: no binding | binding result [2]: binds
B1: 6HBad fusion protein (full length human Bad with N-terminal six residue Histidine tag, construct pET-15 6H Bad) (other, not shown: small tags and cut ends)
chain: MFQIPEFEPSEQEDSSSAERGLGPSPAGDGPSGSGKHHRQAPGLLWDASHQQEQPTSSSHHGGAGAVEIRSRHSSYPAGTEDDEGMGEEPSPFRGRSRSAPPNLWAAQRYGRELRRMSDEFVDSFKKGLPRPKSAGTATQMRQSSSWTRVFQSWWDRNLGRGSSAPSQ
notes: Made in E. coli BL21 plysS, purified on nickel, coated on ELISA plates at 4 ug/ml; also called human 6HBad

binding result [3]: no binding
B2: human Bad expressed as a fusion protein with the transcriptional activator B42 (prey, vector pJG4-5) (other, not shown: large carriers)
chain: B1 chain
notes: also called itself; B42-Bad

binding result [3]: no binding
B3: human Bak expressed as a fusion protein with the transcriptional activator B42 (prey, vector pJG4-5) (other, UniProt Q16611 1-187, looked up, not shown: large carriers)
chain: MASGQGPGPPRQECGEPALPSASEEQVAQDTEEVFRSYVFYRHQQEQEAEGVAAPADPEMVTLPLQPSSTMGQVGRQLAIIGDDINRRYDSEFQTMLQHLQPTAENAYEYFTKIATSLFESGINWGRVVALLGFGYRLALHVYQHGLTGFLGQVTRFVVDFMLHHCIARWIAQRGGWVAALNLGNGP
notes: no residue range is printed; also called B42-Bak
